# T1: ETS1 (Homo sapiens, UniProt P14921)
# T1 sequence: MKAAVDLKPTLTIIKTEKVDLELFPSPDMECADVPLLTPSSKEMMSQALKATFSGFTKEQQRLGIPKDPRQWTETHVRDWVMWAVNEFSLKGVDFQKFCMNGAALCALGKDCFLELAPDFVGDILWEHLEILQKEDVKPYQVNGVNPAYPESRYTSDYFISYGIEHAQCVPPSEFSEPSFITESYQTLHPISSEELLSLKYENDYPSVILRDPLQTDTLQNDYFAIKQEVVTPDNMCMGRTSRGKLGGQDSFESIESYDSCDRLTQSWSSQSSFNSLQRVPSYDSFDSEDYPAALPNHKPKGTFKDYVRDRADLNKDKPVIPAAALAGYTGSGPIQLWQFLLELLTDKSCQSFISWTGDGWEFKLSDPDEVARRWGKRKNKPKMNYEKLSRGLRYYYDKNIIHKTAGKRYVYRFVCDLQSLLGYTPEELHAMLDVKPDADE
# B1: Table S2 C row 37 (dsDNA)
# DNA 1: CTGGTGCAGAAAAAAACCACACAAGCCATTGGGTAG
# DNA 2: CTACCCAATGGCTTGTGTGGTTTTTTTCTGCACCAG
# B2: Table S2 C row 21 (dsDNA)
# DNA 1: TTGCAGAGTTAGCTAGCCACAGGCAAGTCTCCATTG
# DNA 2: CAATGGAGACTTGCCTGTGGCTAGCTAACTCTGCAA
# B3: Table S2 C row 149 (dsDNA)
# DNA 1: TTGGCTTCGGTTCTAACCTCAGAGACTTCTCTAAAT
# DNA 2: ATTTAGAGAAGTCTCTGAGGTTAGAACCGAAGCCAA
# B4: Table S2 C row 87 (dsDNA)
# DNA 1: GAATGTCTTTAAAAAACCACAGAATTGGGCTGGGCG
# DNA 2: CGCCCAGCCCAATTCTGTGGTTTTTTAAAGACATTC
# B5: Table S2 C row 57 (dsDNA)
# DNA 1: CACAGAACTGACCAGACCACATGGAGGCCAATCAAA
# DNA 2: TTTGATTGGCCTCCATGTGGTCTGGTCAGTTCTGTG
# B6: Table S2 B row 3812 (dsDNA)
# DNA 1: GAGTCGCTTCCGCTCCCGCCCCGCTCTCTGGCGTAG
# DNA 2: CTACGCCAGAGAGCGGGGCGGGAGCGGAAGCGACTC
# B7: Table S2 C row 48 (dsDNA)
# DNA 1: TTCAGAGTCAGATCTACCACACACAGCCCAGGAGCC
# DNA 2: GGCTCCTGGGCTGTGTGTGGTAGATCTGACTCTGAA
# B8: Table S2 B row 2766 (dsDNA)
# DNA 1: TTTGCAAATCCAGAGCGGAGACTTCCGGTGGCCTAG
# DNA 2: CTAGGCCACCGGAAGTCTCCGCTCTGGATTTGCAAA
# B9: Table S2 C row 14 (dsDNA)
# DNA 1: CTTGCCTAAGACATGCCCACAGCTGCACAGATAAGA
# DNA 2: TCTTATCTGTGCAGCTGTGGGCATGTCTTAGGCAAG
# B10: Table S2 C row 115 (dsDNA)
# DNA 1: TGGGGCTTCTCGTTGGCCACAAGTTCAATTTGAGCC
# DNA 2: GGCTCAAATTGAACTTGTGGCCAACGAGAAGCCCCA
# B11: Table S2 C row 40 (dsDNA)
# DNA 1: CTTCACGGCTAGTTCTGTGGGTGTCCCACTTAGTTT
# DNA 2: AAACTAAGTGGGACACCCACAGAACTAGCCGTGAAG
# B12: Table S2 C row 72 (dsDNA)
# DNA 1: ACTACCTTCTTGGTAACCACAAGTCTCAGAGGTACT
# DNA 2: AGTACCTCTGAGACTTGTGGTTACCAAGAAGGTAGT
# B13: Table S2 B row 672 (dsDNA)
# DNA 1: GGCTTCCGGCGGGGTACCCTCCTCTGTAGGCGGGGC
# DNA 2: GCCCCGCCTACAGAGGAGGGTACCCCGCCGGAAGCC
# B14: Table S2 C row 6 (dsDNA)
# DNA 1: TAAGCCCCGCGTGCCTGTGGGTATTTGAAAGCTGAA
# DNA 2: TTCAGCTTTCAAATACCCACAGGCACGCGGGGCTTA
# B15: Table S2 C row 124 (dsDNA)
# DNA 1: CGCAGCTCCCCACTGTGCGGTTATCTAGGCCAGCAC
# DNA 2: GTGCTGGCCTAGATAACCGCACAGTGGGGAGCTGCG
# B16: Table S2 C row 71 (dsDNA)
# DNA 1: CTGGGTTGGATGACCTGCGGTGGAACAGATGGCTCC
# DNA 2: GGAGCCATCTGTTCCACCGCAGGTCATCCAACCCAG
# B17: Table S2 C row 65 (dsDNA)
# DNA 1: GTCAGCTATAGTGACACCACAAGGCCTGAAGAGGGC
# DNA 2: GCCCTCTTCAGGCCTTGTGGTGTCACTATAGCTGAC
# B18: Table S2 C row 136 (dsDNA)
# DNA 1: CAAATGAGGTGCCAAGCCACAAAAAGCATTTGCGTC
# DNA 2: GACGCAAATGCTTTTTGTGGCTTGGCACCTCATTTG
# B19: Table S2 C row 59 (dsDNA)
# DNA 1: CAGACAGTAACAAATGGTGGTTGCCGTCATGTGAAG
# DNA 2: CTTCACATGACGGCAACCACCATTTGTTACTGTCTG
# B20: Table S2 C row 43 (dsDNA)
# DNA 1: GGCTTTCCAAGCTAGTGTGGTCCACTTGCTCCCTCA
# DNA 2: TGAGGGAGCAAGTGGACCACACTAGCTTGGAAAGCC
# B21: Table S2 C row 5 (dsDNA)
# DNA 1: TAGTGTGAATCCCCGCCCACAGAGGGGCGGCACGTT
# DNA 2: AACGTGCCGCCCCTCTGTGGGCGGGGATTCACACTA
# B22: Table S2 C row 129 (dsDNA)
# DNA 1: GCAGCTGTAGAGGCCTGAGGTTTACCTAATCTGCTA
# DNA 2: TAGCAGATTAGGTAAACCTCAGGCCTCTACAGCTGC
# B23: Table S2 C row 181 (dsDNA)
# DNA 1: CACAGGCAGTTCCAGACCGCAGCCTTCCAGGGCCCT
# DNA 2: AGGGCCCTGGAAGGCTGCGGTCTGGAACTGCCTGTG
# B24: Table S2 C row 102 (dsDNA)
# DNA 1: GGTCAGGAGGGATGAACCACCGCTTACTCGTTCTTC
# DNA 2: GAAGAACGAGTAAGCGGTGGTTCATCCCTCCTGACC
# B25: Table S2 C row 55 (dsDNA)
# DNA 1: CTGACATTTAAGCTCACCACATGTGGGATAGTTAGT
# DNA 2: ACTAACTATCCCACATGTGGTGAGCTTAAATGTCAG
# B26: Table S2 C row 24 (dsDNA)
# DNA 1: GACGGGCGCGCGGCTTGCGGGCGGCGGGGCGCTGGG
# DNA 2: CCCAGCGCCCCGCCGCCCGCAAGCCGCGCGCCCGTC
# B27: Table S2 C row 79 (dsDNA)
# DNA 1: CCCATCAGCAGAAAAACCACAGCAAGCTTAATGTGC
# DNA 2: GCACATTAAGCTTGCTGTGGTTTTTCTGCTGATGGG
# B28: Table S2 C row 134 (dsDNA)
# DNA 1: AAGTCTACAGCTCTTTGAGGTTCATGTGTGACTCTA
# DNA 2: TAGAGTCACACATGAACCTCAAAGAGCTGTAGACTT
# B29: Table S2 C row 20 (dsDNA)
# DNA 1: TCTCCTCTGAGGGCCTGTGGGCAATGAGCAGAAAAG
# DNA 2: CTTTTCTGCTCATTGCCCACAGGCCCTCAGAGGAGA
# B30: Table S2 C row 75 (dsDNA)
# DNA 1: AGCTCTGAGAATCATTGTGGCCACACTGTCATGGTC
# DNA 2: GACCATGACAGTGTGGCCACAATGATTCTCAGAGCT
# B31: Table S2 C row 156 (dsDNA)
# DNA 1: AGGTGTGCTCTCCACCGCGGTTCACAAGGTGTCTGC
# DNA 2: GCAGACACCTTGTGAACCGCGGTGGAGAGCACACCT
# B32: Table S2 C row 88 (dsDNA)
# DNA 1: TGAGGCTCAGTGCTGACCACATTCAAATGACTAGAC
# DNA 2: GTCTAGTCATTTGAATGTGGTCAGCACTGAGCCTCA
# B33: Table S2 B row 2515 (dsDNA)
# DNA 1: CGGTGGCTTCCGGCCCATGGCGCTGGTTGGTGACTC
# DNA 2: GAGTCACCAACCAGCGCCATGGGCCGGAAGCCACCG
# B34: Table S2 C row 33 (dsDNA)
# DNA 1: ATCTCAGTTAAGCAGACCACACTTTACGTTCTAGTT
# DNA 2: AACTAGAACGTAAAGTGTGGTCTGCTTAACTGAGAT
# B35: Table S2 C row 70 (dsDNA)
# DNA 1: AAAGTCATTTAAGTGACCACACTTTATAGGCTTGCC
# DNA 2: GGCAAGCCTATAAAGTGTGGTCACTTAAATGACTTT
# B36: Table S2 C row 2 (dsDNA)
# DNA 1: GTGATGCCGACAGGCCGTGGTTTCTGAGAAACACCA
# DNA 2: TGGTGTTTCTCAGAAACCACGGCCTGTCGGCATCAC
# B37: Table S2 C row 128 (dsDNA)
# DNA 1: AAGATATGGGCTACTTGTGGTTTACTCTGTCTGCTA
# DNA 2: TAGCAGACAGAGTAAACCACAAGTAGCCCATATCTT
# B38: Table S2 C row 74 (dsDNA)
# DNA 1: GTTAAAACAAAGCAAGCCACAGTGTGTGTCCACAGA
# DNA 2: TCTGTGGACACACACTGTGGCTTGCTTTGTTTTAAC
# B39: Table S2 C row 158 (dsDNA)
# DNA 1: AGGTATTAAACAGCAACCGCATTGCCAAGCACTGTG
# DNA 2: CACAGTGCTTGGCAATGCGGTTGCTGTTTAATACCT
# B40: Table S2 C row 191 (dsDNA)
# DNA 1: CCAAAAAGAGAGGCAGCCACAAGATCTTCTAAAAGG
# DNA 2: CCTTTTAGAAGATCTTGTGGCTGCCTCTCTTTTTGG
# B41: Table S2 C row 178 (dsDNA)
# DNA 1: GGCTGACTCTGTATCTGTGGGTGCTTCAGGGCCAAC
# DNA 2: GTTGGCCCTGAAGCACCCACAGATACAGAGTCAGCC
# B42: Table S2 C row 46 (dsDNA)
# DNA 1: GGTTTACAGCTCATTTGCGGCAGAATCAAAATGGCT
# DNA 2: AGCCATTTTGATTCTGCCGCAAATGAGCTGTAAACC
# Target: T1, ETS1
# Assay: gcPBM; 1 nM ETS1
# Conditions: tags: N-terminal GST (pDEST15), kept (PMC6008103); label: surface-attached array probe
row,Binder,binding signal
1,B1,"369 PBM fluorescence, median of replicate spots"
2,B2,"364 PBM fluorescence, median of replicate spots"
3,B3,"389 PBM fluorescence, median of replicate spots"
4,B4,"379 PBM fluorescence, median of replicate spots"
5,B5,"379 PBM fluorescence, median of replicate spots"
6,B6,"15300 PBM fluorescence, median of replicate spots"
7,B7,"393 PBM fluorescence, median of replicate spots"
8,B8,"14400 PBM fluorescence, median of replicate spots"
9,B9,"383 PBM fluorescence, median of replicate spots"
10,B10,"381 PBM fluorescence, median of replicate spots"
11,B11,"366 PBM fluorescence, median of replicate spots"
12,B12,"394 PBM fluorescence, median of replicate spots"
13,B13,"13700 PBM fluorescence, median of replicate spots"
14,B14,"385 PBM fluorescence, median of replicate spots"
15,B15,"376 PBM fluorescence, median of replicate spots"
16,B16,"374 PBM fluorescence, median of replicate spots"
17,B17,"370 PBM fluorescence, median of replicate spots"
18,B18,"388 PBM fluorescence, median of replicate spots"
19,B19,"367 PBM fluorescence, median of replicate spots"
20,B20,"378 PBM fluorescence, median of replicate spots"
21,B21,"372 PBM fluorescence, median of replicate spots"

row,Binder,binding signal
1,B22,"377 PBM fluorescence, median of replicate spots"
2,B23,"391 PBM fluorescence, median of replicate spots"
3,B24,"362 PBM fluorescence, median of replicate spots"
4,B25,"379 PBM fluorescence, median of replicate spots"
5,B26,"371 PBM fluorescence, median of replicate spots"
6,B27,"369 PBM fluorescence, median of replicate spots"
7,B28,"394 PBM fluorescence, median of replicate spots"
8,B29,"389 PBM fluorescence, median of replicate spots"
9,B30,"376 PBM fluorescence, median of replicate spots"
10,B31,"376 PBM fluorescence, median of replicate spots"
11,B32,"389 PBM fluorescence, median of replicate spots"
12,B33,"14700 PBM fluorescence, median of replicate spots"
13,B34,"393 PBM fluorescence, median of replicate spots"
14,B35,"361 PBM fluorescence, median of replicate spots"
15,B36,"392 PBM fluorescence, median of replicate spots"
16,B37,"392 PBM fluorescence, median of replicate spots"
17,B38,"382 PBM fluorescence, median of replicate spots"
18,B39,"391 PBM fluorescence, median of replicate spots"
19,B40,"380 PBM fluorescence, median of replicate spots"
20,B41,"371 PBM fluorescence, median of replicate spots"
21,B42,"392 PBM fluorescence, median of replicate spots"
